Measured values reported in patent US20120117670A1 (U3 PHARMA, published 2012).
Each block holds one binder with its values, some of them ahead of it.

Tests used:
[1] = biological target: T1, human receptor tyrosine kinase AXL (human, UniProt P30530 26-894); experiment: FACS Scatchard on human AXL overexpressing NIH3T3 cells; apparent KD (KDapp)
T1 construct: also called hAXL; human AXL on NIH3T3-AXL cI.7, RatI-AXL cI.2 and human cancer cell lines
T1 sequence: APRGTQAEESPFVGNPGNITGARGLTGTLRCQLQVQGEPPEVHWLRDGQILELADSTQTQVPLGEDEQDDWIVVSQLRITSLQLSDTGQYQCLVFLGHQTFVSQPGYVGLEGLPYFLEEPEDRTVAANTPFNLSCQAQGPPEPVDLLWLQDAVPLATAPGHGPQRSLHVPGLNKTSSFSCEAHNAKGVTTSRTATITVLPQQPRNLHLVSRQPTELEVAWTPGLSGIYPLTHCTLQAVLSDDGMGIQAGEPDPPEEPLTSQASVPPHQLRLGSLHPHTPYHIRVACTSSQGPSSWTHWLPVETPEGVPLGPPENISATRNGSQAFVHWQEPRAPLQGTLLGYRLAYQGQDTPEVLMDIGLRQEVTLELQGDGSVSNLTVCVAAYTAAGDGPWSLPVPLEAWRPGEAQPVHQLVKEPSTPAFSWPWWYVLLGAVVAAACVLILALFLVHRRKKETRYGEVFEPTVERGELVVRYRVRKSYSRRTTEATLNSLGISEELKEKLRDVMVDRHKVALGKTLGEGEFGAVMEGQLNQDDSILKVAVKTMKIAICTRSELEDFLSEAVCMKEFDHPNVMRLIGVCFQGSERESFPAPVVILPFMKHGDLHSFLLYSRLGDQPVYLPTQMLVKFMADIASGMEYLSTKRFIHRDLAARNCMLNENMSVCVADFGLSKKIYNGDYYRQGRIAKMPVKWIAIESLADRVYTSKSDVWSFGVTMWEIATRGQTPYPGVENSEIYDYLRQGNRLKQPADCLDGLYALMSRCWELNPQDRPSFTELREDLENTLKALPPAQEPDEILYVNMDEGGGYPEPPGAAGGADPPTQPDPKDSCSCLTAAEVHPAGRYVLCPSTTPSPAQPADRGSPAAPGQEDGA
Protocol: Human AXL overexpression NIH3T3 cells were harvested by incubation with 10 mM EDTA in PBS and resuspended at 6 million cells per ml in FACS buffer (PBS pH 7.4, 3% FCS, 0.1% NaN3). In a round-bottom microtiter plate, 100 μl of cell suspension were added to 100 μl of antibody solution containing antibodies 11B7, 11D5, ch11B7-IgG1, ch11B7-IgG2, ch11D5-IgG1 or ch11D5-IgG2 at concentrations between 40 and 0.002 μg/ml (266 and 0.01 nM) in FACS buffer. Antibody binding was allowed to proceed for 2 hours on ice. Then, cells were washed twice with 250 μl FACS buffer per well, and resuspended in 200 μl of secondary antibody (anti-rat-PE; Jackson) diluted 1:50 in FACS buffer. After 45 minutes of incubation, cells were again washed twice in FACS buffer and resuspended in […] PBS for FACS analysis. Analysis was carried out on a Beckman-Coulter FACS FC500. To determine the apparent affinity constant KDapp, mean fluorescence values were plotted against the ratio of mean fluorescence and the corresponding antibody concentration ([M]). The calculated KDapp resulted from the inverse slope of the straight line are listed below: […]

[2] = biological target: T2, Human AXL-Fc (R&D Systems, #154-AL) (human, UniProt P30530 26-451); experiment: ELISA on plate-adsorbed human AXL-Fc (1 ug/ml), 5-fold antibody dilution series, AP-conjugated goat anti-human IgG, fluorescent substrate (Example 14)
T2 construct: Bought reagent; also called human AXL-Fc fusion protein; human AXL-Fc protein; not shown: Fc part of the bought fusion protein
T2 sequence: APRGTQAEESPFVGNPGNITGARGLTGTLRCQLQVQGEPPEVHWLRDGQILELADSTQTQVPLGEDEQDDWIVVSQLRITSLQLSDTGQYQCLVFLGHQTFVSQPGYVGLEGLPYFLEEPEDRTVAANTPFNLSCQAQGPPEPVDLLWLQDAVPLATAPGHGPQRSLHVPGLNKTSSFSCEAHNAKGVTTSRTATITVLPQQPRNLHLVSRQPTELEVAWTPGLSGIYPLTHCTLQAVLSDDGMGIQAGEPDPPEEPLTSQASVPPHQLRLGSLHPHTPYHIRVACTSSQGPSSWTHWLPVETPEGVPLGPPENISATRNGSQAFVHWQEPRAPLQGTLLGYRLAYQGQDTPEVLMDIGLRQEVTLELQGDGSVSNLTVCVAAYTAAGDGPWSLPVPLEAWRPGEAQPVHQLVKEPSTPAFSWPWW

[3] = biological target: T2, Human AXL-Fc (R&D Systems, #154-AL); experiment: ELISA on plate-adsorbed human AXL-Fc (1 ug/ml), 5-fold antibody dilution series, AP-conjugated goat anti-human IgG, fluorescent substrate (Example 13)
[4] = biological target: T3, NHis-hAXL26-131 (human AXL single IG domain) (human, UniProt P30530 33-138); experiment: ELISA on plate-adsorbed human AXL IG-domain fragment (1 ug/ml), antibody at 0.04 ug/ml, fluorescent substrate (Example 16)
T3 construct: Made in E. coli; tag kept
Protocol: Then, each solution was dispensed in the amount of […] to an Immuno Plate (manufactured by Nalge Nunc International K.K., #437111) and left standing overnight at 4° C. to adsorb the peptide onto the plate. On the next day, the wells were washed 5 times with a PBS-T solution (PBS and 0.05% (v/v) Tween 20). Then, a solution containing skim milk (manufactured by Morinaga Milk Industry Co., Ltd.) diluted with PBS to 5% was dispensed in an amount of 100 μl/well and left standing at room temperature for 2 hours. The solutions in the wells were removed, and the wells were washed 5 times with a PBS-T solution. The rat anti-human AXL monoclonal antibody #11B7 was diluted to 0.04 μg/ml with a PBS solution containing 0.5% skim milk. Then, the solution was dispensed in amount of 100 μl/well and left standing at room temperature for 2 hours. The wells were washed 5 times with a PBS-T solution. […] Then, a fluorescent substrate solution (manufactured by Roche Diagnostics K.K., #11681982001) was added in the amount of 100 μl/well to perform fluorescence reaction. The fluorescence intensity on the human AXL-IG domain-adsorbed plate was measured 15 minutes after the addition of the fluorescent substrate solution using a SpectraMax M5 (manufactured by Molecular Devices Corp.). […]

B1: chimeric anti-AXL antibody ch11D5-IgG1 (antibody, V domains shown)
VH: EVQLQESGPGLVKPSQSLSLTCSVTGYSITSNYWGWIRKFPGNKMEWIGHITNSGNTTYNPSLKSRISISRDTSRNQFFLQLNSVTTEDTATYYCAKGAFDYWGQGVMVTVSS
VL: DIQMTQSPSSMSTSLGDRVTITCRASQDIGNYLSWFQQKVGKSPRRMIYGAIKLAVGVPSRFSGSRSGSDYSLTISSLESEDMAIYYCLQYIQFPLTFGSGTKLELKR
notes: Rat/human chimera, human IgG1/kappa; also called chm11D5; human chimeric antibody
Kd [1]: 400 pM
EC50 (read off the curve) [2]: ~0.01 µg/mL

B3: chimeric anti-AXL antibody ch11B7-IgG1 (antibody, V domains shown)
VH: EVQLQESGPGLVKPSQSLSLTCSVTGYSITSNYWGWIRKFPGDKMEWMGYITYSGSTSYNPSLKSRISITRDTSKNQFFLQLNSVTSEDTATYYCAITTFYYWGQGVMVTVSS
VL: DIQMTQAPSSLPASLGDRVTITCRASQDIGNYLRWFQQKPGKSPRLMISGATNLAAGVPSRFSGSRSGSDYSLTISSLESEDMADYYCLQSKESPWTFGGGTKLELKR
notes: Rat/human chimera, human IgG1/kappa; also called chm11B7; chimeric anti-AXL mAb #11B7
Kd [1]: 600 pM
EC50 (read off the curve) [3]: ~0.02 µg/mL

Second part, the binder after the results:

Kd [1]: 810 pM
B2: rat anti-human AXL monoclonal antibody #11D5 (antibody, rat IgG2a, V domains shown)
VH: B1 VH
VL: B1 VL
notes: Rat IgG2a/kappa from hybridoma; also called III11D5

Kd [1]: 380 pM
binding result [4]: no binding (tested: 0.04 ug/ml)
B4: rat anti-human AXL monoclonal antibody #11B7 (antibody, rat IgG1, V domains shown)
VH: B3 VH
VL: B3 VL
notes: Rat IgG1/kappa from hybridoma; also called I11B7; rat anti-AXL antibody 11B7
